Earlier results as cited in publication PMC8305778.
pKd: −log10 of the molar value.

Molecular target: FcεRIα (Homo sapiens) (UniProt P12319)
Experiment: given as Ka

Chain of UniProt P12319 (P12319 26-257): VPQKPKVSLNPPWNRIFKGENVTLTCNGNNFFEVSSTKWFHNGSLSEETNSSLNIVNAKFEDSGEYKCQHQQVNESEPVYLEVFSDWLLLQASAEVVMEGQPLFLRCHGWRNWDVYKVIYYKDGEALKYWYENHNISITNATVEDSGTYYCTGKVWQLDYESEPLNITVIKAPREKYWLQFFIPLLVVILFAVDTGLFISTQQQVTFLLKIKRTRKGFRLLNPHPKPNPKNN

Question: With IgE Fc (from UniProt P01854) as the substance, how does the pKd read?
Answer: The pKd was 10.00.
